Patent publication US20190113512A1 (MIT, published 2019)

Tests used:
H1BA = H1BA (Mycobacterium tuberculosis); experiment: yeast-surface display flow cytometry, specificity test
H2BA [1] = target: T1, H2BA (Mycobacterium tuberculosis); experiment: as above
H6BA = H6BA (Mycobacterium tuberculosis); experiment: as above
H7BA = H7BA (Mycobacterium tuberculosis); experiment: as above
H2BA [2] = target: T1, H2BA; experiment: yeast-surface display; validated conditions not given
[3] = target: T2, streptavidin Alexa Fluor 647 (UniProt P22629 37-163); experiment: yeast-surface display flow cytometry, secondary reagent alone, geometric MFI
T2 construct: also called SA-AF647; streptavidin-AF 647
T2 sequence (P22629 37-163 limits assumed): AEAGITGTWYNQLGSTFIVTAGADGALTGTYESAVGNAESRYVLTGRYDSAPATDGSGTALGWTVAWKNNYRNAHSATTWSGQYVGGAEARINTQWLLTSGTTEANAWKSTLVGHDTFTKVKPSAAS

B1: rcSso7d.H1BA.3 (designed binder)
chain: MATVKFTYQGEEKQVDISKIKHVIRNGQYIIFAYDEGGGAYGGGWVSEKDAPKELLQMLEKQ
notes: also called 1.E2.2
B1 was tested, and the “% positive” value (H1BA) was 71.5%, the “% positive” value (H2BA [1]) was 0.9% and the “% positive” value (H6BA) was 0.9%. The “% positive” value (H7BA) was 1.3%.

B2: rcSso7d.H2BA.2 (designed binder)
chain: MATVKFTYQGEEKQVDISKIKYVGRWGQNIGFAYDEGGGAYGYGGVSEKDAPKELLQMLEKQ
B2: binds (H2BA [2]).

B3: rcSso7d.Rv1656 (yeast-surface displayed) (designed binder)
chain: MATVKFTYQGEEKQVDISKIKWVRRYGQYIGFSYDEGGGAWGKGYVSEKDAPKELLQMLEKQ
notes: also called rcSso7d.H4.2; H4.2
B3: no binding [3].
